The source of these data is FireProtDB (doi:10.1002/cbic.201402128).

Usually Tm stands for the temperature at the midpoint of the melting transition.

B1: Haloalkane dehalogenase, D4Z2G1 (parent)
chain: MSLGAKPFGEKKFIEIKGRRMAYIDEGTGDPILFQHGNPTSSYLWRNIMPHCAGLGRLIACDLIGMGDSDKLDPSGPERYAYAEHRDYLDALWEALDLGDRVVLVVHDWGSALGFDWARRHRERVQGIAYMEAIAMPIEWADFPEQDRDLFQAFRSQAGEELVLQDNVFVEQVLPGLILRPLSEAEMAAYREPFLAAGEARRPTLSWPRQIPIAGTPADVVAIARDYAGWLSESPIPKLFINAEPGALTTGRMRDFCRTWPNQTEITVAGAHFIQEDSPDEIGAAIAAFVRRLRPA

The variants in this series derive from B1. As to conditions: Sphingobium indicum (strain DSM 16413 / CCM 7287 / MTCC 6362 / UT26 / NBRC 101211 / UT26S); pH 7.5; Thermal; fluorescence; Na-Hepes 50 mM; reversible: no; structure 1MJ5; whole UniProt chain shown.

On to MSLGAKPFGEKKFIEIKGRRMAYIDEGTGDPILFQHGNPTSSYLWRNCMPHCAGLGRLIACDLIGMGDSDKLDPSGPERYAYAEHRDYLDALWEALDLGDRVVLVVHDWGSALGFDWARRHRERVQGIAYMEAIAMPIEWADFPEQDRDLFQAFRSQAGEELVLQDNVFVEQVLPGLILRPLSEAEMAAYREPFLAAGEARRPTLSWPRQIPIAGTPADVVAIARDYAGWLSESPIPKLFINAEPGALTTGRMRDFCRTWPNQTEITVAGAHFIQEDSPDEICAAIAAFVRRLRPA [I48C G283C], for which the melting temperature (Tm) came out at 49 °C and the “change of melting temperature, mutant - wild type (higher = more stable)” value (“change of melting temperature, mutant” for short) is -2 °C.
For MSLGAKPFGEKKFIEIKGRRMAYIDEGTGAPILFQHGNPTSSYLWRNIMPHCAGLGRLIACDLIGMGDSDKLDPSGPERYAYAEHRDYLDALWEALDLGDRVVLVVHDWGSALGFDWARRHRERVQGIAYMEAIAMPIEWADFPEQDRDLFQAFRSQAGEELVLQDNVFVEQVLPGLILRPLSEAEMAAYREPFLAAGEARRPTLSWPRQIPIAGTPADVVAIARDYAGWLSESPIPKLFINAEPGALTTGRMRDFCRTWPNQTEITVAGAHFIQEDSPDEIGAAIAAFVRRLRPA [D30A], the Tm is 51 °C and the “change of melting temperature, mutant” value turned out to be 0 °C.
In the same order, the values of MSLGAKPFGEKKFIEIKGRRMAYIDEGTGHPILFQHGNPTSSYLWRNIMPHCAGLGRLIACDLIGMGDSDKLDPSGPERYAYAEHRDYLDALWEALDLGDRVVLVVHDWGSALGFDWARRHRERVQGIAYMEAIAMPIEWADFPEQDRDLFQAFRSQAGEELVLQDNVFVEQVLPGLILRPLSEAEMAAYREPFLAAGEARRPTLSWPRQIPIAGTPADVVAIARDYAGWLSESPIPKLFINAEPGALTTGRMRDFCRTWPNQTEITVAGAHFIQEDSPDEIGAAIAAFVRRLRPA [D30H] are 51 °C and 0 °C.
The like results for MSLGAKPFGEKKFIEIKGRRMAYIDEGTGVPILFQHGNPTSSYLWRNIMPHCAGLGRLIACDLIGMGDSDKLDPSGPERYAYAEHRDYLDALWEALDLGDRVVLVVHDWGSALGFDWARRHRERVQGIAYMEAIAMPIEWADFPEQDRDLFQAFRSQAGEELVLQDNVFVEQVLPGLILRPLSEAEMAAYREPFLAAGEARRPTLSWPRQIPIAGTPADVVAIARDYAGWLSESPIPKLFINAEPGALTTGRMRDFCRTWPNQTEITVAGAHFIQEDSPDEIGAAIAAFVRRLRPA [D30V] were, in that order, 49 °C and -2 °C.
The like results for MSLGAKPFGEKKFIEIKGRRMAYIDEGTGDPILFQHGNPTSSYLWRNIMPHCAGLGRLIACDLIGMGLSDKLDPSGPERYAYAEHRDYLDALWEALDLGDRVVLVVHDWGSALGFDWARRHRERVQGIAYMEAIAMPIEWADFPEQDRDLFQAFRSQAGEELVLQDNVFVEQVLPGLILRPLSEAEMAAYREPFLAAGEARRPTLSWPRQIPIAGTPADVVAIARDYAGWLSESPIPKLFINAEPGALTTGRMRDFCRTWPNQTEITVAGAHFIQEDSPDEIGAAIAAFVRRLRPA [D68L] were, in that order, 49.5 °C and -1.5 °C.
Consider MSLGAKPFGEKKFIEIKGRRMAYIDEGTGDPILFQHGNPTSSYLWRNIMPHCAGLGRLIACDLIGMGDSDKLDPSGPERYAYAEHRDYLDALWEALDLGDRVVLVVHDWGSALGFDWARRHRERVQGIAYMEAIAMPIEWADFPEQDRDLFQAFRSQAGEELVLQDNVFVEQVLPGLILRPLSEAEMAAYREPFLAAGEARRPTLSWPRQIPIAGTPADVVAIARDYAGWLSQSPIPKLFINAEPGALTTGRMRDFCRTWPNQTEITVAGAHFIQEDSPDEIGAAIAAFVRRLRPA [E233Q], for which the Tm turned out to be 51.5 °C and the “change of melting temperature, mutant” value came out at 0.5 °C.
The like results for MSLGAKPFGEKKFIEIKGRRMAYIDEGTGDPILFQHGNPTSSYLWRNIMPHCAGLGRLIACDLIGMGDSDKLDPSGPERYAYAEHRDYLDALWEALDLGDRVVLVVHDWGSALGFDWARRHRERVQGIAYMEAIAMPIEWADFPEQDRDLFQAFRSQAGEELVLQDNVFVEQVLPGLILRPLSEAEMAAYREPFLAAGEARRPTLSWPRQIPIAGTPADVVAIARDYAGWLSESPIPKLFINAEPGAFTTGRMRDFCRTWPNQTEITVAGAHFIQEDSPDEIGAAIAAFVRRLRPA [L248F] were, in that order, 61.5 °C and 10.5 °C.
MCLGAKPFGEKKFIEIKGRRMAYIDEGTGDPILFQHGNPTSSYLWRCIMPHCAGLGRLIACDLIGMGDSDKLDPSGPERYAYAEHRDYLDALWEALDLGDRVVLVVHDWGSALGFDWARRHRERVQGIAYMEAIAMPIEWADFPEQDRDLFQAFRSQAGEELVLQDNVFVEQVLPGLILRPLSEAEMAAYREPFLAAGEARRPTLSWPRQIPIAGTPADVVAIARDYAGWLSESPIPKLFINAEPGALTTGRMRDFCRTWPNQTEITVAGAHFIQEDSPDEIGAAIAAFVRRLRPA [S2C N47C]: the Tm came to 48 °C and the “change of melting temperature, mutant” value is -3 °C.
The like results for MSLGAKPFGEKKFIEIKGRRMAYIDEGTGDPILFQHGNPTSSYLWRNIMPHCAGLGRLIACDLIGMGDSDKLDPSGPERYAYAEHRDYLDALWEALDLGDRVVLVVHDWGSALGFDWARRHRERVQGIAYMEAIAMPIEWADFPEQDRDLFQAFRSQAGEELVLQDNVFVEQVLPGLILRPLSEAEMAYYREPFLAAGEARRPTLSWPRQIPIAGTPADVVAIARDYAGWLSESPIPKLFINAEPGALTTGRMRDFCRTWPNQTEITVAGAHFIQEDSPDEIGAAIAAFVRRLRPA [A189Y] were, in that order, 51.5 °C and 0.5 °C.
For MSLGAKPFGEKKFIEIKGRRMAYIDEGTGDPILFQHGNPTSSYLWRNIMPHCAGLGRLIACDLIGMGDSDKLDPSGPERYAYAEHRDYLDALWEALDLGDRVVLVVHDWGSALGFDWARRHRERVQGIAYMEAIAMPIEWADFPEQDRDLFQAFRSQAGEELVLQDNVFVEQVLPGLILRPLSEAEMAAYREPFLAAGEARRPTLSWPRQIPIAGTPADVVAIARDYAAWLSESPIPKLFINAEPGALTTGRMRDFCRTWPNQTEITVAGAHFIQEDSPDEIGAAIAAFVRRLRPA [G229A], the melting temperature (Tm) is 51.5 °C and the “change of melting temperature, mutant” value amounted to 0.5 °C.
In the same order, the values of MSLGAKPFGEKKFIEIKGRRMAYIDEGTGDPILFQHGNPTSSYLWRNIMPHCAGLGRLIACDLIGMGDSDKLDPSGPERYAYAEHRDYLDALWEALDLGDRVVLVVHDWGSALGFDWARRHRERVQGIAYMEAIAMPIEWADFPEQDRKLFQAFRSQAGEELVLQDNVFVEQVLPGLILRPLSEAEMAAYREPFLAAGEARRPTLSWPRQIPIAGTPADVVAIARDYAGWLSESPIPKLFINAEPGALTTGRMRDFCRTWPNQTEITVAGAHFIQEDSPDEIGAAIAAFVRRLRPA [D149K] are 67.5 °C and 16.5 °C.
In the same order, the values of MSLGAKPFGEKKFIEIKGRRMAYIDEGTGDPILFQHGNPTSSYLWRNIMPHCAGLGRLIACDLIGMGDSDKLDPSGPHRYAYAEHRDYLDALWEALDLGDRVVLVVHDWGSALGFDWARRHRERVQGIAYMEAIAMPIEWADFPEQDRDLFQAFRSQAGEELVLQDNVFVEQVLPGLILRPLSEAEMAAYREPFLAAGEARRPTLSWPRQIPIAGTPADVVAIARDYAGWLSESPIPKLFINAEPGALTTGRMRDFCRTWPNQTEITVAGAHFIQEDSPDEIGAAIAAFVRRLRPA [E78H] are 51 °C and 0 °C.
The like results for MSLGAKPFGEKKFIEIKGRRMAYIDEGTGDPILFQHGNPTSSYLWRNIMPHCAGLGRLIACDLIGMGDSDKLDPSGPERYAYAEHRDYLDALWEALDLGDRVVLVVHDWGSALGFDWARRHRERVQGIAYMEAIAMPIEWADFPEQDRDLFQAFRSQAGEELVLQDNVFVEQVLPGLILRPLSEAEMAAYRRPFLAAGEARRPTLSWPRQIPIAGTPADVVAIARDYAGWLSESPIPKLFINAEPGALTTGRMRDFCRTWPNQTEITVAGAHFIQEDSPDEIGAAIAAFVRRLRPA [E192R] were, in that order, 53.5 °C and 2.5 °C.
On to MSLGAKPFGEKKFIEIKGRRMAYIDEGTGDPILFQHGNPTSSYLWRNIMPHCAGLGRLIACDLIGMGDSDKLDPSGPERYAYAEHRDYLDALWEALDLGDRVVLVVHDWGSALGFDWARRHRERVQGIAYMEAIAMPIEWADFPEQDRDLFQAFRSQAGEELVLQDNVFVEQVLPGLILRPLSEAEMAAYREPFLAAGEARRPTLSWPRQIPIAGTPADVVAIARDYAGWLSESPIPKLFINAEPGALTTGRMRQFCRTWPNQTEITVAGAHFIQEDSPDEIGAAIAAFVRRLRPA [D255Q], for which the Tm worked out at 50.5 °C and the “change of melting temperature, mutant” value was -0.5 °C.
MSLGAKPFGEKKFIEIKGRRMAYIDEGTGDPILFQHGNPTSSYLWRNIMPHCAGLGRLIACDLIGMGDSDKLDPSGPERYAYAEHRDYLDALWEALDLGDRVVLVVHDWGSALGFDWARRHRERVQGIAYMEAIAMPIEWADFPEQDRDLFQAFRSQAGEELVLQDNVFVEQVLPNLILRPLSEAEMAAYREPFLAAGEARRPTLSWPRQIPIAGTPADVVAIARDYAGWLSESPIPKLFINAEPGALTTGRMRDFCRTWPNQTEITVAGAHFIQEDSPDEIGAAIAAFVRRLRPA [G176N]: the Tm was 51 °C and the “change of melting temperature, mutant” value worked out at 0 °C.
In the same order, the values of MSLGAKPFGEKKFIEIKGRRMAYIDEGTGDPILFQHGNPTSSYLWRNIMPHCAGLGRLIACDLIGMGDSDKLDPSGPERYAYAEHRDYLDALWEALDLGDRVVLVVHDWGSALGFDWARRHRERVQGIAYMEAIAMPIEWADFPEQDRDLFQAFRSQAGEELVLQDNVFVEQVLPALILRPLSEAEMAAYREPFLAAGEARRPTLSWPRQIPIAGTPADVVAIARDYAGWLSESPIPKLFINAEPGALTTGRMRDFCRTWPNQTEITVAGAHFIQEDSPDEIGAAIAAFVRRLRPA [G176A] are 51.5 °C and 0.5 °C.
Turning to MSLGAKPFGEKKFIEIKGRRMAYIDEGTGDPILFQHGNPTSSYLWRNIMPHCAGLGRLIACDLIGMGDSDKLDPSGPERYAYAEHRDYLDALWEALDLGDRVVLVVHDWGSALGFDWARRHRERVQGIAYMEAIAMPIEWADFPEQDRDLFQAFRSQAGEELVLQDNVFVEQVLPGLILRPLSEAEMAAYREPFLAAGEARRPTLSWPRQIPIAGTPADVVAIARDYAGWLSESPIPKLFINAIPGALTTGRMRDFCRTWPNQTEITVAGAHFIQEDSPDEIGAAIAAFVRRLRPA [E244I], the Tm was 50 °C and the “change of melting temperature, mutant” value is -1 °C.
The like results for MSLGAKPFGEKKFIEIKGRRMAYIDEGTGDPILFQHGNPTSSYLWRNIMPHCAGLGRLIACDLIGMGDSDKLDPSGPERYAYAEHRDYLDALWEALDLGDRVVLVVHDWGSALGFDWARRHRERVQGIAYMEAIAMPIEWADFPEQDRDLFQAFRSQAGEELVLQDNVFVEQVLPGLILRPLSEAEMAAYREPFLAAGEARRPTLSWPRQIPIAGTPADVVAIARDYAGWLSESPIPKLFINAVPGALTTGRMRDFCRTWPNQTEITVAGAHFIQEDSPDEIGAAIAAFVRRLRPA [E244V] were, in that order, 50.5 °C and -0.5 °C.
Turning to MSLGAKPFGEKKFITIKGRRMAYIDEGTGDPILFQHGNPTSSYLWRNIMPHCAGLGRLIACDLIGMGDSDKLDPSGPERYAYAEHRDYLDALWEALDLGDRVVLVVHDWGSALGFDWARRHRERVQGIAYMEAIAMPIEWADFPEQDRDLFQAFRSQAGEELVLQDNVFVEQVLPGLILRPLSEAEMAAYREPFLAAGEARRPTLSWPRQIPIAGTPADVVAIARDYAGWLSESPIPKLFINAEPGALTTGRMRDFCRTWPNQTEITVAGAHFIQEDSPDEIGAAIAAFVRRLRPA [E15T], the Tm turned out to be 52 °C and the “change of melting temperature, mutant” value came out at 1 °C.
The like results for MSLGAKPFGEKKFIEIKGRRMAYIDEGTGDPILFQHGNPTSSYLWRNIMPHCAGLGRLIACDLIGMGDSDKLDPSGPERYAYAEHRDYLDALWEALDLGDHVVLVVHDWGSALGFDWARRHRERVQGIAYMEAIAMPIEWADFPEQDRDLFQAFRSQAGEELVLQDNVFVEQVLPGLILRPLSEAEMAAYREPFLAAGEARRPTLSWPRQIPIAGTPADVVAIARDYAGWLSESPIPKLFINAEPGALTTGRMRDFCRTWPNQTEITVAGAHFIQEDSPDEIGAAIAAFVRRLRPA [R101H] were, in that order, 51 °C and 0 °C.
